B1: monoclonal rabbit anti-RAM9 idiotypic antibody 68-1 (antibody, V domains shown)
VH: QEQLKESGGRLVKPGGTLTLTCKASGMDFNNYYYMAWVRQAPGKGLEWIGYISGGGSPYYASWAKGRFTISRTSTTVDLKMTSLTTEDTATYFCGRYTDINNGIDLWGPGTLVTVSS
VL: DIVMTQTPSSVSEPVGGTVTINCQASENIYSNLAWYQQKPGQPPKLLIYLASSLTSGVPSRFKGSGSGTEFTLTISDLECADAAIYYCQNNYGDVRYGRNAFGGGTEVVVKG
notes: Rabbit IgG; also called anti-RAM9-68-1; Clone 68-1
B2: monoclonal rabbit anti-RAM9 idiotypic antibody 54-5 (antibody, V domains shown)
VH: QSLEESGGDLVKPGASLTLTCTASGFSFSSGYDMCWVRQAPGKGLEWIACIYDGDVRTYYASWAKGRFTISRTSSTTMTLQMTGLTAADTATYLCARGASGYLSALYLWGPGTLVTVSS
VL: DVVMTQTPASVSEPVGGTVTIKCQASFTITSNLAWYQQKPGQPPKLLIYGASNLASGVSSRFRGSGFGTEFTLTISDLECADAATYYCQCAAVLSSWTFGGGTEVVVKG
notes: Rabbit IgG; also called anti-RAM9-54-5; Clone 54-5
B3: anti-oxMIF antibody RAM9 (antibody, V domains shown)
VH: EVQLLESGGGLVQPGGSLRLSCAASGFTFSIYSMNWVRQAPGKGLEWVSSIGSSGGTTYYADSVKGRFTISRDNSKNTLYLQMNSLRAEDTAVYYCAGSQWLYGMDVWGQGTTVTVSS
VL: DIQMTQSPSSLSASVGDRVTITCRSSQRIMTYLNWYQQKPGKAPKLLIFVASHSQSGVPSRFRGSGSETDFTLTISGLQPEDSATYYCQQSFWTPLTFGGGTKVEIKR
notes: also called biotinylated RAM9

Tests used:
anti-oxMIF antibody RAM9 = biological target: B3; test: secondary screening (neutralising) ELISA with finally purified antibody: inhibition of biotinylated RAM9 binding to coated human MIF, % recovery; the number stands in paragraph 159 without a unit, ng/ml is from the axis log c (ng/ml) of the figure
Procedure: Microplates were coated with human MIF (10 μg/ml PBS, 100 μl/well) and blocked with 250 μl 1.5% fish gelatin in PBS. Washing steps (4×250 μl of PBS per well) were included between the incubations. The samples were serially pre-diluted (in 1% fish gelatin/PBS) to 2× final dilution and mixed with an equivalent volume of biotinylated RAM9 (30 ng/ml) (equivalent to a 1:2 dilution, final concentration of RAM9 is therefore 15 ng/ml). These mixtures were allowed to form complexes for 30 min. […] Biotinylated RAM9 captured on the plate was detected using HRP coupled Streptavidin and TMB as chromogenic substrate. The absorbance of each well was related to the absorbance of the standard curve by linear regression and is expressed in ng/ml. The concentration calculated for biotinylated RAM9 in the sample is related to the calculated concentration of biotinylated RAM9 in the negative control (% recovery=(100%/measured concentration of biotinylated RAM9 in the negative control)×measured concentration of RAM9 in the sample). Half maximal binding inhibition (IC₅₀) by anti-RAM9 antibodies is calculated by blotting log concentration of rabbit anti-RAM9 against % recovery and non-linear 4-parameter curve fit with variable slope FIG. 4a.

[1] = biological target: T1, oxMIF in human tissue cryosections (human, UniProt P14174 2-115); test: IHC on pancreas cryosections, 68-1 without the primary antibody RAM9
T1 construct: also called oxidized MIF
T1 sequence (P14174 2-115 limits assumed): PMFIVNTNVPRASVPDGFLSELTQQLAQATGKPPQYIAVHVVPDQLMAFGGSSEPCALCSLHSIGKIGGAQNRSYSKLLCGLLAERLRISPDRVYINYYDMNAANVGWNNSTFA
Procedure: (§1) The slides were prepared according to state of the art techniques known to experts, either fresh frozen or OCT embedded, sectioned at 10 μm and stored at <=−80° C. after sectioning. All following steps were done at ambient temperature. The cryo-sections were air dried for 30 min and unspecific binding was blocked with blocking buffer (BB: 20% Normal Goat Serum/2% Bovine Serum Albumin/0.2% Fish Gelatine in TBS) for 15 min. The sections were then incubated without primary antibody or with anti-oxMIF antibody RAM9 in primary antibody dilution buffer (PADB: 2% Bovine Serum Albumin/0.2% Fish Gelatine in TBS) at a concentration of 2 μg/ml for 60 min. After washing in TBS, the specimen was fixed in 4% PBS buffered formaldehyde for 20 min. Excess formaldehyde was removed by washing in TBS for 5-10 min, Endogenous peroxidases were blocked by incubating the tissue sections in 0.3% H₂O₂ in methanol for 20 min. Excess methanol/H₂O₂ was removed by washing in TBS for 5-10 min. Detection of was done by incubating the tissue sections with anti-idiotypic rabbit monoclonal antibodies (68-1) diluted in PADS at 1 μg/ml for 30 min. Excess detection antibody was removed by washing in TBS for 5-10 min. The staining was done using SignalStain® Boost IHC Detection Reagent Rabbit for 30 min. Then the sections were extensively washed again 10 min in TBS. […]

[2] = biological target: T1, oxMIF in human tissue cryosections; test: IHC on infiltrating ductal carcinoma of the pancreas, RAM9 detected by rabbit anti-RAM9 54-5 or 68-1
Procedure: as §1

| Binder | IC50 (anti-oxMIF antibody RAM9) [µg/mL] | binding result [1] | binding result [2] |
| --- | --- | --- | --- |
| B1 | 0.0296 | no binding (tested: 1 µg/ml) |  |
| B2 | 0.00596 |  |  |
| B3 |  |  | binds |
